Results on 32 sequences are retold here after the supplement of paper PMC12764529.

Data set [1] in a line: folding stability dG unfold (combined trypsin and chymotrypsin); higher = more stable. An outline of the steps: (§1)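 Bayesian fitting of sequencing counts gave K50 for each design. Unfolding free energy followed by setting this against a sequence-predicted unfolded-state K50 and a shared folded-state K50, either per protease or with trypsin and chymotrypsin combined. The designs, under 80 residues and lacking cysteine, were digested in a PA-tagged cDNA display format at 11 threefold-diluted protease concentrations and without protease, and only those with AlphaFold2 dimer inter-PAE above 15 were kept.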

The nature of data set [2]: folding stability dG unfold from chymotrypsin proteolysis; higher = more stable. An outline of the steps:
as §1

± gives the half width of the 95% confidence interval.

On to “SAGGSAMTKKTVVTIPLPPGAEDLSPEEVERRVRDELAAEPARPDVTVEVERLPPEPVVRVTITEASAGGSA [r15_1029_JUSTAS]”, for which the “folding stability dG unfold” value was -0.307 ± 0.2 kcal/mol in data set [1] and 0.0943 ± 0.046 kcal/mol in data set [2].

Consider “SAGGSAMTTRATATPQPDGTVTVTVEAPGFSRTFTAPPGDLAASLAAVERELPPGEPRVVTSAAAGSAGGSA [r15_925_JUSTAS]”, for which the “folding stability dG unfold” value was -0.233 ± 0.067 kcal/mol in data set [1] and 0.346 ± 0.059 kcal/mol in data set [2].

Regarding “SAGGSAMVIDSKEVLEDDVLVTTTAITVDPSTGIKTEDVEEKPVPLPDGTPLPPRKTTRTTPLANASAGGSA [r15_623_JUSTAS]”, the “folding stability dG unfold” value was determined as 0.175 ± 0.13 kcal/mol in data set [1] and 0.784 ± 0.025 kcal/mol in data set [2].

“SAGGSAPKIYSVEEKELPDNYRLIVFKADKSDPEFIEEIAELLPKEKVEPLSKSEDGYYVVRLPLESAGGSA [r15_386_TrMRF]”: the entries for the “folding stability dG unfold” value in data set [1] and in data set [2] were -0.0414 ± 0.26 kcal/mol and 0.0639 ± 0.23 kcal/mol, respectively.

For “SAGGSAPKRLRIKFKDPDGKTQKIKIPPGIKSINIQPNNDYVSLMIHNPEDGQSRMLPPMRVDEITSAGGSA [r15_133_TrROS]”, the “folding stability dG unfold” value in data set [1] is less than -1 kcal/mol; in data set [2], -0.899 ± 0.48 kcal/mol.

In the case of “SAGGSAPPEVVEVPPVELPDYTVSPPRFAPEPTLRERTATPPDGPEFSVTTRIDPETGVPEVVVAASAGGSA [r15_84_JUSTAS]”, the “folding stability dG unfold” value in data set [1] amounted to 0.211 ± 0.067 kcal/mol; in data set [2], 0.718 ± 0.017 kcal/mol.

Turning to “SAGGSASMKTTTVTLPLDPAQLAEAIAALREAVAPDEAAEVTFVHPHAPTSLTVTISRSDVTLNAASAGGSA [r15_257_JUSTAS]”, the “folding stability dG unfold” value in data set [1] is -0.17 ± 0.11 kcal/mol; in data set [2] it was 0.706 ± 0.074 kcal/mol.

As for “SAGGSASPVLVELPEGVRVELPPDTMTVTIRLPNGTEVVVPLENPEPPDPAAALARARAVVAALPESAGGSA [r15_748_JUSTAS]”, the “folding stability dG unfold” value in data set [1] was determined as 0.185 ± 0.11 kcal/mol; in data set [2], 0.774 ± 0.1 kcal/mol.

As to “SAGGSASSEFNTDKKPPPLPKKSKVINLNIPTPPDETEEEAKKKAEEIANKLKEEGKYGEVTVKIESAGGSA [r15_450_JUSTAS]”, the “folding stability dG unfold” value turned out to be 0.5 ± 0.41 kcal/mol in data set [1] and 0.756 ± 0.17 kcal/mol in data set [2].

For “SAGGSASSGSMPLTKETDPLDGAGEVERVLYEDGTVVEIVTGADGKPTLRTRKVEIEPPEPLLLLRSAGGSA [r15_478_JUSTAS]”, the “folding stability dG unfold” value in data set [1] is less than -1 kcal/mol; in data set [2], -0.501 ± 0.63 kcal/mol.

Regarding “SAGGSDLSSASFSSSPSTLPDGRSLTTYPAVTLPDGTVATLTVETDPATGAPTVTLTLGDTDIVLATSAGGS [r16_766_JUSTAS]”, the results for the “folding stability dG unfold” value in data set [1] and in data set [2] were -0.474 ± 0.25 kcal/mol and 0.0331 ± 0.32 kcal/mol, respectively.

For the sequence “SAGGSIPAEELAAALAALPELPAAEVEVVVEERPDEVVVDVRFADPEHPRHVALLRRAERLLAEAASAGGSA [r2_3_TrMRF]”, the “folding stability dG unfold” value in data set [1] was -0.305 ± 0.22 kcal/mol; in data set [2], 0.373 ± 0.3 kcal/mol.

As for “SAGGSKEEIEKKLKELAEKLGVEVEDIEIKPLSNGKYIAVVKFKDNPNVYAVYEFDGDEIKIVEIKPSAGGS [r8_432_TrMRF]”, the “folding stability dG unfold” value was found to be 5.15 ± 0.57 kcal/mol in data set [1] and 5.04 ± 0.26 kcal/mol in data set [2].

For the sequence “SAGGSMKIVKKSEDPSPPVETIEVDPNLDIEKIINELKNQPNVKVDKSTDPNSSKKTITITRPVDGSAGGSA [r2_44_JUSTAS]”, the results for the “folding stability dG unfold” value in data set [1] and in data set [2] were -0.224 ± 0.086 kcal/mol and 0.0999 ± 0.058 kcal/mol, respectively.

In the case of “SAGGSMLTVDYTVSPDVDLEEALAAVAEEVRAALLAETGGPVAVDVRPVSRPPDGTVRIRVDVALESAGGSA [r2_214_JUSTAS]”, the “folding stability dG unfold” value in data set [1] is 0.525 ± 0.12 kcal/mol; in data set [2], 0.991 ± 0.028 kcal/mol.

With “SAGGSMTIDDLKGMPVKEIAKRLGPGYEVNVDPNHGTLTLQHPNYQVTINVSPKDGYVKITEVTPHSAGGSA [r2_470_TrROS]”, the “folding stability dG unfold” value in data set [1] is less than -1 kcal/mol; in data set [2] it was -0.808 ± 0.32 kcal/mol.

Take “SAGGSRMRILNIDPESNRIRVRHPGKPFTFPVDNIEEVTIDPNDGYLTIKMKGETQTIPLDDPDAFSAGGSA [r2_48_TrROS]”: the “folding stability dG unfold” value in data set [1] worked out at 0.0825 ± 0.18 kcal/mol; in data set [2], 0.575 ± 0.16 kcal/mol.

For the sequence “SAGGSSLDDPSLLPGVTLTVTLPETGEVLRVPSSEVVSGPLSEAAARVRAEVAAAHPGRPWEVRAESAGGSA [r2_392_JUSTAS]”, the “folding stability dG unfold” value is less than -1 kcal/mol in data set [1] and -0.728 ± 0.42 kcal/mol in data set [2].

As for “SAGGSSLPPDVTLVEEEKVVETPDGTTIKVKTTTAVSAEGTVRRPVTETITYPEKPETIEKETEIDASAGGS [r16_563_JUSTAS]”, the “folding stability dG unfold” value in data set [1] turned out to be 0.122 ± 0.33 kcal/mol; in data set [2], 0.405 ± 0.15 kcal/mol.

In the case of “SAGGSSPPTTTRTFAHPDGRTTELTVPTLPDGTPVVTTTTGGTTTTLSLSQLEKLPSSWTFTSTSSSAGGSA [r2_431_JUSTAS]”, the “folding stability dG unfold” value in data set [1] was -0.971 ± 0.64 kcal/mol; in data set [2], -0.27 ± 0.24 kcal/mol.

With “SAGGSSSTPRIKTSVSSSTTVTPLPGPTTLVTTTTTTTTTNPANGQQLSTTPTTSTTVVTPGTGAALSAGGS [r8_204_JUSTAS]”, the “folding stability dG unfold” value was found to be 0.314 ± 0.12 kcal/mol in data set [1] and 0.797 ± 0.053 kcal/mol in data set [2].

In the case of “SAGGTIEEIKEALKKLPEGAVVEVTTENGEKLEFKSLEEIKKATITNENGEKIKITEVKVYPAKKEKSAGGS [r16_680_TrROS_Hall]”, the entries for the “folding stability dG unfold” value in data set [1] and in data set [2] were less than -1 kcal/mol and 0.569 ± 0.16 kcal/mol, respectively.

As to “SAGKIVIEGEPEKLPEAIEEALKNNPDLKKVTIYYGDKSEEFEKDEEVKFFKPKKNKDGKPFMVLVVEDSAG [r5_130_TrMRF]”, the entries for the “folding stability dG unfold” value in data set [1] and in data set [2] were -0.00581 ± 0.37 kcal/mol and 0.756 ± 0.23 kcal/mol, respectively.

Regarding “SAGKTVKVTVEKEVTLENGNKVTVKVEKTVELKPPPPKKITLSPEEIEEIDKETGEIRNKKTNKVFKIKSAG [r5_807_TrROS_Hall]”, the “folding stability dG unfold” value in data set [1] is less than -1 kcal/mol; in data set [2], -0.0446 ± 0.37 kcal/mol.

As to “SAGMIVVPLPLSVEEAPAFARELLEAAEAAGLEVTIRVPDEAVAEAVREAAPPDAPVRIEPLEPGEPVESAG [r5_911_JUSTAS]”, the entries for the “folding stability dG unfold” value in data set [1] and in data set [2] were 0.128 ± 0.11 kcal/mol and 0.58 ± 0.054 kcal/mol, respectively.

“SAGMKIKVPFKAEVAPGAKPVKVEVWLGDGPPVATARLYYKVPGEEKTEVALIPIDPSTGKVTVFVKPGSAG [r5_136_TrMRF]”: the “folding stability dG unfold” value amounted to 0.0709 ± 0.32 kcal/mol in data set [1] and 0.592 ± 0.26 kcal/mol in data set [2].

Regarding “SAGMTITIEDLDNGEKVTIEKNPEDPNMVQIEYPNGPEQTFPADEIAEELGLPPSLLQNGIRIKKIKISSAG [r5_156_TrROS]”, the “folding stability dG unfold” value in data set [1] is less than -1 kcal/mol; in data set [2], -0.603 ± 0.23 kcal/mol.

For “SAGMTPDETVNILVSPDDSPEKVAEIIARHGPLTVTLPGSTREFTSEEEIRALYEQHPEDQVINVTVLSAGG [r19_95_JUSTAS]”, the figures for the “folding stability dG unfold” value in data set [1] and in data set [2] were -0.447 ± 0.28 kcal/mol and -0.0129 ± 0.21 kcal/mol, respectively.

In the case of “SAGPLVITVEETDGTVTITIYDAETGEKIAEFTFPKGAEVTIEDGYITIRNKETGETFVFKLPDGVKPSAGG [r19_4_TrROS_Hall]”, the “folding stability dG unfold” value was more than 6 kcal/mol in data set [1] and 6.34 ± 0.27 kcal/mol in data set [2].

Consider “SAGPPEPREIEIPVEGSWSDLRNQVKNVAEEAQPKGEPVQIKIEWGGRPRKYTLNDIDDVPPWMKVEIYSAG [r5_626_TrROS]”, for which the “folding stability dG unfold” value in data set [1] was -0.449 ± 0.74 kcal/mol; in data set [2], -0.0343 ± 0.48 kcal/mol.

“SAGSHEAWFPIPELLNDPGLEDAWIRVTVHPTPNGNIDIDIEPEPVPKPKITPEEMQEQMEENNKQMKSAGG [r19_313_TrROS]”: the “folding stability dG unfold” value in data set [1] is less than -1 kcal/mol; in data set [2], -0.435 ± 0.064 kcal/mol.

As for “SAGSLPPDVTVPIPRRVRLSESDPALLEAARNGEPVYEELPGDVRVTVELRPLPPDELEVTERVYFPAGSAG [r5_223_JUSTAS]”, the “folding stability dG unfold” value in data set [1] is -0.000299 ± 0.27 kcal/mol; in data set [2], 0.444 ± 0.12 kcal/mol.
